Measurements published in US20140302021A1 (ONCLAVE THERAPEUTICS, published 2014).
No end group written: not given here.

Biological target: T1, CGGHEDT (SEQ ID NO: 17) conjugated to Ovalbumin (also: conjugated to ovalbumin)
T1 construct: Peptide-carrier conjugate used as the ELISA antigen
T1 peptide: CGGHEDT
Test: competitive binding ELISA
Description: A competitive binding ELISA has been established to measure binding of humanized 2A4 to its antigen (CGGHEDT (SEQ ID NO: 17) when conjugated to Ovalbumin) compared to the reference standard.

- binding result: binds
B1: humanized 2A4 antibody (IgG1, kappa isotype version of murine 2A4) (antibody, V domains shown)
VH: EVQLVESGGGLVQPGGSLRLSCAASGFTFNTYAMYWIRQAPGKGLEWVARIRSKSNNYAIYYADSVKDRFTISRDDSKNSLYLQMNSLKTEDTAVYYCARPYSDSFAYWGQGTLVTVSS
VL: DVVMTQSPLSLPVTPGEPASISCRSSQSLVHSTGNTYLHWYLQKPGQSPQLLIYKVSNRFSGVPDRFSGSGSGTDFTLKISRVEAEDVGVYYCSQSTHVPFTFGGGTKVEIKR
modifications: N-linked glycosylation at the consensus sequence, positions 299 to 301
notes: Human IgG1 of G1m(3) allotype, kappa; also called h2A4; humanized 2A4 drug substance
